Experimental data from IntAct's records for PubMed 10228159.

B1: Protein E7 (Human papillomavirus type 16), P03129 (parent)
chain: MHGDTPTLHEYMLDLQPETTDLYCYEQLNDSSEEEDEIDGPAGQAEPDRAHYNIVTFCCKCDSTLRLCVQSTHVDIRTLEDLLMGTLGIVCPICSQKP
partner: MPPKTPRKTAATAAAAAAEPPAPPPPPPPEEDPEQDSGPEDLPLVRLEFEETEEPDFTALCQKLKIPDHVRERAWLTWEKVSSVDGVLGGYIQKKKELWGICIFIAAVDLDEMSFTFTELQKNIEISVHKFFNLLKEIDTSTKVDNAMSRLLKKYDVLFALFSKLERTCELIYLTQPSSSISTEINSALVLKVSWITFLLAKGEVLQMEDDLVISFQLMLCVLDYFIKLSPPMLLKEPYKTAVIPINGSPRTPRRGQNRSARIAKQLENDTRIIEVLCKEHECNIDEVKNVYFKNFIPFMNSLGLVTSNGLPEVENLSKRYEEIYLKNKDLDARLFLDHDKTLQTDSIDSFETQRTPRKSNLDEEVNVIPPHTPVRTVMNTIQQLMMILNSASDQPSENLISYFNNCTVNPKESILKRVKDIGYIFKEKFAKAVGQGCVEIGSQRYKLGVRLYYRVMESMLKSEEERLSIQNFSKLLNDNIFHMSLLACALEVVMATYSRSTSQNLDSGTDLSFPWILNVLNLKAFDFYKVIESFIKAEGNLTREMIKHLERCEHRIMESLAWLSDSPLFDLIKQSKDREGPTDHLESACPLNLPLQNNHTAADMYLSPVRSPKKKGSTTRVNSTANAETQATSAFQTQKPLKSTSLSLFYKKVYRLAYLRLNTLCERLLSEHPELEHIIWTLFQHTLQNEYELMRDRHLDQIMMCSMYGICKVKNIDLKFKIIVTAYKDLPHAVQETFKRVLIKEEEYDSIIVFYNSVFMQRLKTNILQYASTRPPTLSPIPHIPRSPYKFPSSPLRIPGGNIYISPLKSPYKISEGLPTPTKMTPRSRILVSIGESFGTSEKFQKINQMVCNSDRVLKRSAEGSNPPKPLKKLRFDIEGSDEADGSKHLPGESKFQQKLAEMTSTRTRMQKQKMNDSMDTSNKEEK
B2: Protein E7 (Human papillomavirus type 16), P03129 (parent)
chain: B1 chain

Variants of: B1
Details: with rb_human RB1, P06400

Variant	effect of a mutation on the interaction
L67R	decreasing interaction

Variants of: B2
Details: with chd4_human CHD4, Q14839
Sequence of chd4_human CHD4, Q14839 (Q14839 whole entry): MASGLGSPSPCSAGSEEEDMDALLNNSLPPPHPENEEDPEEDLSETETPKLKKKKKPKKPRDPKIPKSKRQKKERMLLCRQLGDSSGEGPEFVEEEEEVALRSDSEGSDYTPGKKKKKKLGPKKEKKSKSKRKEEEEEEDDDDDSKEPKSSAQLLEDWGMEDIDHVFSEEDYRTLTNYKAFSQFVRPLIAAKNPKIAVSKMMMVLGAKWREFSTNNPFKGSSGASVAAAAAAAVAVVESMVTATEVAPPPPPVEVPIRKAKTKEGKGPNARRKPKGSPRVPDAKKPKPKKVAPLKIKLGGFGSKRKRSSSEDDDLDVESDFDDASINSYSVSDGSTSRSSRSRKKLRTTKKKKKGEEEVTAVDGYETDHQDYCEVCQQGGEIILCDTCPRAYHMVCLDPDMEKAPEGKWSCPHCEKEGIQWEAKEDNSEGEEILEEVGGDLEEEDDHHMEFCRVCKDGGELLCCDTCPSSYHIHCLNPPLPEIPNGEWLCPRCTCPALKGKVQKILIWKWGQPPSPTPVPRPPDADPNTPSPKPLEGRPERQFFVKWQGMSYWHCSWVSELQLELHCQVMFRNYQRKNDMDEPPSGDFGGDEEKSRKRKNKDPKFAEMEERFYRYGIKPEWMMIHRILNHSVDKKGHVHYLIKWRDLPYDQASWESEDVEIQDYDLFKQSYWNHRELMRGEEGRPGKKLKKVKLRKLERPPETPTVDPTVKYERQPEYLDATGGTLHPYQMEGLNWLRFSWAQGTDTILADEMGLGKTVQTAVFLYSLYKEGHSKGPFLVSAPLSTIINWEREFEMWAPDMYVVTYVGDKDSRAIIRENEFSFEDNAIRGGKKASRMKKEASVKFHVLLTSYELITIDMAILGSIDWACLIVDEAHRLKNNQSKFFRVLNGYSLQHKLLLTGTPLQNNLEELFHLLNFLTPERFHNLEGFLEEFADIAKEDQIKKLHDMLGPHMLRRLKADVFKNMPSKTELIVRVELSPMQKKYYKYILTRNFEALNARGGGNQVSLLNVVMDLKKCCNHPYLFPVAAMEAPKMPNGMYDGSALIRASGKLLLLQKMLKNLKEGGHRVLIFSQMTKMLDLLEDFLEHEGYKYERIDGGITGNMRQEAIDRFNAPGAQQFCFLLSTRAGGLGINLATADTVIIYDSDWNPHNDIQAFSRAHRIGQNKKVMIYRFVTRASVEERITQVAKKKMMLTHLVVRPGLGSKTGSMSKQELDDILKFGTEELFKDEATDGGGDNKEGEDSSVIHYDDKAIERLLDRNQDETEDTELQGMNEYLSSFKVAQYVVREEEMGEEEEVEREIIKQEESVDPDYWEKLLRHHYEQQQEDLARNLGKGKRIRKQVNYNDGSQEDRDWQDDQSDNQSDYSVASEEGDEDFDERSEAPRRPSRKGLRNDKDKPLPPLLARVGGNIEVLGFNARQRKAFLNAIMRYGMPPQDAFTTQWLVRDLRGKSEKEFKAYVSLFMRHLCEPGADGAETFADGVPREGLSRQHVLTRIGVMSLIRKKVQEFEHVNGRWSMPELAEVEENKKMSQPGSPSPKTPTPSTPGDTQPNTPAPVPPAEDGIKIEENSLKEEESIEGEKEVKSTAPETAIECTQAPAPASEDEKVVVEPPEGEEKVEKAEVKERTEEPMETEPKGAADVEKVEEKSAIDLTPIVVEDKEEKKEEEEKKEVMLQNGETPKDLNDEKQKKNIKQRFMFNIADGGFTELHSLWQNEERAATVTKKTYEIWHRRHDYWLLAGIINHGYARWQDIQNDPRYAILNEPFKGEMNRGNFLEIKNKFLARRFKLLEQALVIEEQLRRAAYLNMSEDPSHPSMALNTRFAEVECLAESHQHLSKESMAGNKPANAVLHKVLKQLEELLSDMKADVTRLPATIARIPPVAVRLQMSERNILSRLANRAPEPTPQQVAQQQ

Variant	effect of a mutation on the interaction
L67R	decreasing interaction
